Laboratory results taken from patent US10058586B2, “Use of human small leucine zipper protein in adipocyte differentiation procedure” (Korea University Research and Business Foundation, priority 2013, dated 2018).

B1: sLZIP: human small leucine-zipper protein, isoform of LZIP, 354 amino acids, no transmembrane domain; GenBank FJ263669, SEQ ID NO: 1 (protein, listed as Homo sapiens)
chain: MELELDAGDQDLLAFLLEESGDLGTAPDEAVRAPLDWALPLSEVPSDWEVDDLLCSLLSPPASLNILSSSNPCLVHHDHTYSLPRETVSMDLESESCRKEGTQMTPQHMEELAEQEIARLVLTDEEKSLLEKEGLILPETLPLTKTEEQILKRVRRKIRNKRSAQESRRKKKVYVGGLESRVLKYTAQNMELQNKVQLLEEQNLSLLDQLRKLQAMVIEISNKTSSSSMYSSDTRGSLPAEHGVLSRQLRALPSEDPYQLELPALQSEVPKDSTHQWLDGSDCVLQAPGNTSCLLHYMPQAPSAEPPLEWPFPDLFSEPLCRGPILPLQANLTRKGGWLPTGSPSVILQDRYSG
B2: N domains of sLZIP: N-terminal deletion mutant of sLZIP, residues 1-228 (protein)
chain: MELELDAGDQDLLAFLLEESGDLGTAPDEAVRAPLDWALPLSEVPSDWEVDDLLCSLLSPPASLNILSSSNPCLVHHDHTYSLPRETVSMDLESESCRKEGTQMTPQHMEELAEQEIARLVLTDEEKSLLEKEGLILPETLPLTKTEEQILKRVRRKIRNKRSAQESRRKKKVYVGGLESRVLKYTAQNMELQNKVQLLEEQNLSLLDQLRKLQAMVIEISNKTSSSS
modifications: left off: a dimerising Fc or GST

Tested on: PPARγ2
Assay: GST pull-down / immunoprecipitation of sLZIP and PPARγ2 in transfected 293T cells
Type: binding
Description: 293T cells were obtained and washed with cold PBS. The cells were re-suspended in an IP lysis buffer [25 mM of Tris-HCl (pH 7.4), 150 mM of NaCl, 1 mM of EDTA, 1% NP-40 and 5% glycerol, and a protease inhibitor]. A suspension was centrifuged at 16,000×g for 20 minutes at 4° C. Supernatants were collected and incubated with 0.5 μg of appropriate antibodies and 25 μl of protein A/G-agarose or a GST Sepharose 4B bead for 24 hours at 4° C. A protein complex was centrifuged at 1,000×g with a cold IP lysis buffer for 1 minute and washed five times. The final pellet was re-suspended in 50 μl of an SDS-sample buffer containing 5% β-mercaptoethanol and heated for 10 minutes at 100° C. A protein sample was isolated in SDS-PAGE (8 to 10%) and transferred to nitrocellulose membranes. Co-precipitated proteins were detected according to western blotting using specific antibodies.
In order to examine whether the transcriptional activity of PPARγ2 is regulated by interaction with sLZIP, interaction between sLZIP and PPARγ2 was examined. For this purpose, 293T cells were transfected with GST-sLZIP and Myc-PPARγ2. Cell lysates were obtained and GST pull-down analysis was performed using a glutathione 4B bead. A protein complex was analyzed in SDS-PAGE and then immunoblotted with specific antibodies (FIG. 2A). The 293T cells were transfected with GST-PPARγ2 and Flag-sLZIP, and identified according to GST-pull-down analysis (FIG. 2B). PPARγ2 was translated in vitro by a TNT translation system (Promega). His-sLZIP proteins were expressed in BL21 cells using an IPTG-inducement system. Purified His-sLZIP proteins were subjected to His pull-down analysis. Proteins bound to the bead were analyzed in SDS-PAGE, and then immunoblotted with anti-PPARγ2 and anti-His antibodies (FIG. 2C). GFP-PPARγ2 and Flag-sLZIP constructs were expressed in C3H10T1/2 cells, and analyzed using mouse anti-Flag and Texas Red-labeled anti-mouse antibodies under a fluorescence microscope. The nucleus was stained with DAPI (FIG. 2D).
Activation of many nuclear receptors depends on a supplement of coactivators. Therefore, a domain of sLZIP necessary for binding with PPARγ2 was examined. For this purpose, 293T cells were transfected with GST-full length sLZIP (1-354), N-terminal deletion mutant sLZIP (1-228), C-terminal deletion mutant sLZIP (229-354), CC-terminal deletion mutant sLZIP (297-354) and PPARγ2. Cell lysates were obtained and GST pull-down analysis was performed using a glutathione 4B bead. A protein complex was analyzed in SDS-PAGE, and then immunoblotted with specific antibodies (FIG. 3A). 293T cells were transfected with Flag-full length PPARγ2, full length PPARγ2, N-terminal deletion mutant PPARγ2 (1-310), C-terminal deletion mutants PPARγ2 (139-505) and GST-sLZIP. Cell lysates were obtained and GST pull-down analysis was performed. A protein complex was analyzed in SDS-PAGE, and then immunoblotted with anti-GST and anti-Flag antibodies (FIG. 3B).
For this purpose, 293T cells were transfected with GST-PPARγ2 and Flag-sLZIP and were treated or not treated with 10 nM of RZD for 24 hours. Cell lysates were obtained and GST pull-down analysis (FIG. 5A) and immunoprecipitation (FIG. 5B) were performed using a glutathione 4B bead. A protein complex was analyzed in SDS-PAGE, and immunoblotted with anti-GST and anti-Flag antibodies. GST-PARγ2 and Flag-sLZIP were expressed in the 293T cells, and the cells were treated with 10 nM of RZD according to time of day. The cell lysates were GST pull-down analyzed (FIG. 5C). 293T cells were transfected with GST-HDAC3 and Flag-sLZIP, and treated or not treated with 10 nM of RZD for 24 hours. The cell lysates were GST pull-down analyzed (FIG. 5D). Flag-sLZIP was expressed in the 293T cells, and the cells were treated with 10 nM of RZD for 24 hours. Immunoprecipitation analysis of the cell lysates was performed using anti-NCoR1 antibodies. […]

Molecule | interaction with PPARγ2 (immunoprecipitation) (293T cells expressing Flag-sLZIP and GST-PPARγ2, ligand treated) | interaction with PPARγ2 (GST pull-down) (293T cells, 10 nM RZD for 24 hours) | time dependence of interaction with PPARγ2 (GST pull-down) (293T cells, 10 nM RZD, time course) | interaction with PPARγ2 (GST pull-down) (293T cells, no ligand) | interaction with PPARγ2 (GST pull-down) (293T cells, no ligand, listed as wild type sLZIP)
B1 | PPARγ2 was dissociated from sLZIP | dissociated from PPARγ2 | dissociated from PPARγ2 in a time-dependent manner | PPARγ2 interacted with sLZIP | interacted with PPARγ2
B2 |  |  |  | not interacted with PPARγ2 | 
